# B1: Calcium and calcium/calmodulin-dependent serine/threonine-protein kinase (Lotus japonicus), A0AAR7 (parent)
# chain: MGYDQTRKLSDEYEISEILGRGGFSVVRKGTKKSGNEKTQVAIKTLRRLGSSPSGTGGGQKSTATVMGFPSLRQVSVSDALLTNEILVMRRIVENVSPHPNVIDLYDVCEDSNGVHLVLELCSGGELFDRIVAQDKYAETEAAAVVRQIAAGLEAVHKADIVHRDLKPENCLFLDSRKDSPLKIMDFGLSSVEEFTDPVVGLFGSIDYVSPEALSQGKITAKSDMWSLGVILYILLSGYPPFIAQNNRQKQQMIINGNFSFYEKTWKGITQSAKQLISSLLTVDPSKRPSAQELLSHPWVRGDKAKDEQMDPEIVSRLQSFNARRKLRAAAIASVWSSTIFLRTKKLRSLVGTYDLKEEEIESLRIHFKKICGNGDNATLSEFVEVLKAMKMPSLIPLAPRIFDLFDNNRDGTIDMREILCGFSSLKNSKGDDALRLCFQMYDTDRSGCITKEEVASMLCALPEECLPADITEPGKLDEIFDLMDANSDGKVTFEEFKAAMQRDSSLQDMLLSSLRPS
# partner: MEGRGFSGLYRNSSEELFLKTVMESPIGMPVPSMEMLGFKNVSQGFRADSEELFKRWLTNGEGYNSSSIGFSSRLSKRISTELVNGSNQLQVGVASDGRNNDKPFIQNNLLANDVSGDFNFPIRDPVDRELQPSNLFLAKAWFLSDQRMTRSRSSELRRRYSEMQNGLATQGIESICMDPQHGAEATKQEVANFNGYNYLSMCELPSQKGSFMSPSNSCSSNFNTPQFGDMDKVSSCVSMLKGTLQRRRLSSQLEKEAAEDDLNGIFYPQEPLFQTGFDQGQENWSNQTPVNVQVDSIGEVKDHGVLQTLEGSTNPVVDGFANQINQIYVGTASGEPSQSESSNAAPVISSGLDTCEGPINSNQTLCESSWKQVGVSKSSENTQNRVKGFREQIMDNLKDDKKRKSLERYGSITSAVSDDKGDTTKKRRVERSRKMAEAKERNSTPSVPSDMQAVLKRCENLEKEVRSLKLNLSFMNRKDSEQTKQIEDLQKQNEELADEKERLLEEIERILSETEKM
# Variants of: B1
# Conditions: with cclop_lotja CYCLOPS
row,Variant,effect of a mutation on the interaction
1,MGYDQTRKLSDEYEISEILGRGGFSVVRKGTKKSGNEKTQVAIATLRRLGSSPSGTGGGQKSTATVMGFPSLRQVSVSDALLTNEILVMRRIVENVSPHPNVIDLYDVCEDSNGVHLVLELCSGGELFDRIVAQDKYAETEAAAVVRQIAAGLEAVHKADIVHRDLKPENCLFLDSRKDSPLKIMDFGLSSVEEFTDPVVGLFGSIDYVSPEALSQGKITAKSDMWSLGVILYILLSGYPPFIAQNNRQKQQMIINGNFSFYEKTWKGITQSAKQLISSLLTVDPSKRPSAQELLSHPWVRGDKAKDEQMDPEIVSRLQSFNARRKLRAAAIASVWSSTIFLRTKKLRSLVGTYDLKEEEIESLRIHFKKICGNGDNATLSEFVEVLKAMKMPSLIPLAPRIFDLFDNNRDGTIDMREILCGFSSLKNSKGDDALRLCFQMYDTDRSGCITKEEVASMLCALPEECLPADITEPGKLDEIFDLMDANSDGKVTFEEFKAAMQRDSSLQDMLLSSLRPS [K44A],disrupting interaction
2,MGYDQTRKLSDEYEISEILGRGGFSVVRKETKKSGNEKTQVAIKTLRRLGSSPSGTGGGQKSTATVMGFPSLRQVSVSDALLTNEILVMRRIVENVSPHPNVIDLYDVCEDSNGVHLVLELCSGGELFDRIVAQDKYAETEAAAVVRQIAAGLEAVHKADIVHRDLKPENCLFLDSRKDSPLKIMDFGLSSVEEFTDPVVGLFGSIDYVSPEALSQGKITAKSDMWSLGVILYILLSGYPPFIAQNNRQKQQMIINGNFSFYEKTWKGITQSAKQLISSLLTVDPSKRPSAQELLSHPWVRGDKAKDEQMDPEIVSRLQSFNARRKLRAAAIASVWSSTIFLRTKKLRSLVGTYDLKEEEIESLRIHFKKICGNGDNATLSEFVEVLKAMKMPSLIPLAPRIFDLFDNNRDGTIDMREILCGFSSLKNSKGDDALRLCFQMYDTDRSGCITKEEVASMLCALPEECLPADITEPGKLDEIFDLMDANSDGKVTFEEFKAAMQRDSSLQDMLLSSLRPS [G30E],disrupting interaction
3,MGYDQTRKLSDEYEISEILGRGGFSVVRKGTKKSGNEKTQVAIATLRRLGSSPSGTGGGQKSTATVMGFPSLRQVSVSDALLTNEILVMRRIVENVSPHPNVIDLYDVCEDSNGVHLVLELCSGGELFDRIVAQDKYAETEAAAVVRQIAAGLEAVHKADIVHRDLKPENCLFLDSRKDSPLKIMDFGLSSVEEFTDPVVGLFGSIDYVSPEALSQGKITAKSDMWSLGVILYILLSGYPPFIAQNNRQKQQMIINGNFSFYEKIWKGITQSAKQLISSLLTVDPSKRPSAQELLSHPWVRGDKAKDEQMDPEIVSRLQSFNARRKLRAAAIASVWSSTIFLRTKKLRSLVGTYDLKEEEIESLRIHFKKICGNGDNATLSEFVEVLKAMKMPSLIPLAPRIFDLFDNNRDGTIDMREILCGFSSLKNSKGDDALRLCFQMYDTDRSGCITKEEVASMLCALPEECLPADITEPGKLDEIFDLMDANSDGKVTFEEFKAAMQRDSSLQDMLLSSLRPS [K44A;T265I],disrupting interaction

# From IntAct's records for PubMed 19074278
